One molecule from PMC6755802 (2019) can be followed below.

In the assay the target is T1, IL-2Rβ ectodomain (SPR, Figure 4A) (human, UniProt P14784 27-240).
T1 chain: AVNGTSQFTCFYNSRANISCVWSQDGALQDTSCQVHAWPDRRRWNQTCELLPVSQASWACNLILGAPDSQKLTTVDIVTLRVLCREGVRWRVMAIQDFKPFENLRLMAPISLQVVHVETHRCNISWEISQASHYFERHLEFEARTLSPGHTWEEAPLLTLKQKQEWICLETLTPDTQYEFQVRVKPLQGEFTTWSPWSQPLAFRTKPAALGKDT
The assay can be described thus: SPR.

B1: Super-2 (ligand)
chain: APTSSSTKKTQLQLEHLLLDLQMILNGINNYKNPKLTRMLTFKFYMPKKATELKHLQCLEEELKPLEEVLNLAQSKNFHFDPRDVVSNINVFVLELKGSETTFMCEYADETATIVEFLNRWITFCQSIISTLT
A word on the Kd: it is the free concentration of one partner at which half of the binding sites on the other are occupied at equilibrium, for simple one-to-one binding. High values mean a looser complex, low ones a tighter complex. In turn, B1 had a Kd of 3.3 nM.
